Test results reported in patent US6489128.
“And” between values parts separate entries of the source, which are not always exact repeats. Equal values may be shown once.

Target: trypsin
Test: cell-based or functional assay

inhibition of trypsin hydrolysis of P-toluenesulphonyl-L-arginine methyl ester (TAME): 5 µg and 10 µg
Substance: inter-alpha trypsin inhibitor (ITI), native complex of light chain and heavy chain, affinity purified from human serum (from UniProt P19823 55-702)
